Consider four molecules from paper PMC3985883 (Biochemistry, 2014).

For data set [1], the target named is class Ia RNR small subunit (Homo sapiens) (UniProt P31350). Particulars: cited from earlier work.
The target of data set [2] is class Ia RNR small subunit (Escherichia coli) (UniProt P69924). The conditions noted are these: cited from earlier work.
The target of data set [3] is T1, Bacillus subtilis class Ib ribonucleotide reductase NrdE (α subunit) (Bacillus subtilis, UniProt P50620 1-700).
T1 sequence (looked up): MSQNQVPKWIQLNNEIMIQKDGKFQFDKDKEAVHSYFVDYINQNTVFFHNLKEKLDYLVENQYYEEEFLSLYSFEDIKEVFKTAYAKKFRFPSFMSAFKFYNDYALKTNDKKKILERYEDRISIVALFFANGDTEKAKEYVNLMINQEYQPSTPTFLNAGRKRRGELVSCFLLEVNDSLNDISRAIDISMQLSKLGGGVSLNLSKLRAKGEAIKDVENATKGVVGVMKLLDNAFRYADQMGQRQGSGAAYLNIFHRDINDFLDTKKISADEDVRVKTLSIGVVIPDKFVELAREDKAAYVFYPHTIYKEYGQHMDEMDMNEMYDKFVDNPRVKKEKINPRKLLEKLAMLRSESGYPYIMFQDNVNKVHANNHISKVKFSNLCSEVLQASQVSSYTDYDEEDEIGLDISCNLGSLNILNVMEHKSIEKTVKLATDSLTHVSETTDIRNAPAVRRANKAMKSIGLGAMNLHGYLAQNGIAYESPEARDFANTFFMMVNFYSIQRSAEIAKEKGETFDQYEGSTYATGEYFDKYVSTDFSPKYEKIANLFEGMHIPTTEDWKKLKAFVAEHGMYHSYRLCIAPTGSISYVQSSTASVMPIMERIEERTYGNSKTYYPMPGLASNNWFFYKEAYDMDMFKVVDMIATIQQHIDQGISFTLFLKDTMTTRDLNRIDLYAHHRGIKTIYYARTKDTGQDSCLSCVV
The experiment in a line: SEC. For orientation: SEC sorts molecules by how far they enter the pores of the column.

Data set [4] deals with the molecule itself. The experiment in a line: SEC.
Data set [5] deals with the molecule itself. The experiment in a line: AUC.

Sequence of class Ia RNR small subunit (Homo sapiens) (P31350 whole entry): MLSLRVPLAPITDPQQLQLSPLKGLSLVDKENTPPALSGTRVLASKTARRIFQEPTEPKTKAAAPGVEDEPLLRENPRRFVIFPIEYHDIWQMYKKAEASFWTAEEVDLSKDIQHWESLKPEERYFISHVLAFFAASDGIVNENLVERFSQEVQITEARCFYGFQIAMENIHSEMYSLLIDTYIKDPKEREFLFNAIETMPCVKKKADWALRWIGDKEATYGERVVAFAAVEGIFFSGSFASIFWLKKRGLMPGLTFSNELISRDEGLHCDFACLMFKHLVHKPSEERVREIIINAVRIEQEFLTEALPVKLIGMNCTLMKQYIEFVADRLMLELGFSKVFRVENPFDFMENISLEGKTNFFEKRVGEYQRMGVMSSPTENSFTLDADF
Sequence of class Ia RNR small subunit (Escherichia coli) (P69924 2-376): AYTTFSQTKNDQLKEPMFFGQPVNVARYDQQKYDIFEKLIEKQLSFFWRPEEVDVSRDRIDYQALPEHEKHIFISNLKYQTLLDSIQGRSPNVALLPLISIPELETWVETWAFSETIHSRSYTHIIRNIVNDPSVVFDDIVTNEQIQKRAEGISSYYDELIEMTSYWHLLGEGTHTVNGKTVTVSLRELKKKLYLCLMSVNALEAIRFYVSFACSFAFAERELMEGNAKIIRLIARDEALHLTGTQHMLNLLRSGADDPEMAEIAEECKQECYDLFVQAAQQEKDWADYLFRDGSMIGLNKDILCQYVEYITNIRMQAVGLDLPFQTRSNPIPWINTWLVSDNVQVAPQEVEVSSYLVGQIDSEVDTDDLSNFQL

The term Kd denotes the equilibrium constant for the complex coming apart. Regarding “class Ia RNR large subunit (from UniProt P23921)”, the equilibrium dissociation constant (Kd) in data set [1] was 200 nM.
Turning to “class Ia RNR large subunit (from UniProt P00452)”, in data set [2], the Kd is 200 nM.

B1: Bacillus subtilis holo-Fe^III2-Y· NrdF (β subunit, diferric-tyrosyl radical cofactor) (enzyme, UniProt P50621 1-329, looked up)
chain: MTKIYDAANWSKHEDDFTQMFYNQNVKQFWLPEEIALNGDLLTWKYLGKNEQDTYMKVLAGLTLLDTEQGNTGMPIVAEHVDGHQRKAVLNFMAMMENAVHAKSYSNIFMTLAPTETINEVFEWVKQNKYLQKKAQMIVGLYKAIQKDDEISLFKAMVASVYLESFLFYSGFYYPLYFYGQGKLMQSGEIINLILRDEAIHGVYVGLLAQEIYNKQTEEKKAELREFAIDLLNQLYENELEYTEDLYDQVGLSHDVKKFIRYNANKALMNLGFDPYFEEEDINPIVLNGLNTKTKSHDFFSMKGNGYKKATVEPLKDDDFYFEDEKEQI
modifications: tyrosyl radical (about 1 Y· per β2); Fe^III2 cofactor (about 4 Fe per β2)
The stoichiometry N is a count of units in the complex or per binding partner. Turning to B1, the binding result in data set [3] is listed as “binds”. Moreover, the “stoichiometry N” value in data set [4] came to 2.

B2: Bacillus subtilis holo-Mn^III2-Y· NrdF (β subunit, dimanganic-tyrosyl radical cofactor) (enzyme, UniProt P50621 1-329, looked up)
chain: MTKIYDAANWSKHEDDFTQMFYNQNVKQFWLPEEIALNGDLLTWKYLGKNEQDTYMKVLAGLTLLDTEQGNTGMPIVAEHVDGHQRKAVLNFMAMMENAVHAKSYSNIFMTLAPTETINEVFEWVKQNKYLQKKAQMIVGLYKAIQKDDEISLFKAMVASVYLESFLFYSGFYYPLYFYGQGKLMQSGEIINLILRDEAIHGVYVGLLAQEIYNKQTEEKKAELREFAIDLLNQLYENELEYTEDLYDQVGLSHDVKKFIRYNANKALMNLGFDPYFEEEDINPIVLNGLNTKTKSHDFFSMKGNGYKKATVEPLKDDDFYFEDEKEQI
modifications: tyrosyl radical (about 1 Y· per β2); Mn^III2 cofactor (about 4 Mn per β2)
For B2, the “stoichiometry N” value in data set [5] worked out at 2. Further, the binding result in data set [3] was “binds”.
